Measured values from patent US10947289B2, “Glyco-modified atrial natriuretic peptide” (priority 2013, dated 2021).

Tests used:
[1] = Detection of test substance in rat plasma by LC-MS/MS (Test Example 3); type: in vivo; conditions: rat plasma, 100 nmol/kg i.v., LC-MS/MS; time at which the test substance was finally detected
Description: Before the administration and 15, 30, 60, 90, 120, 180, and 240 minutes after the administration, blood was sampled (200 μL/sampling) over time from the jugular vein. The blood samples were immediately left on ice.
The collected blood samples were centrifuged at 5000 rpm at 4° C. for 5 minutes by use of a centrifuge (Sigma 4K15, rotor: Nr12130-H). The separated plasma samples were divided into two types (samples for PK measurement and for cGMP measurement) and stored at −80° C. until measurement.
An internal standard (20 μL (500 nM) of a stable isotope of hANP) and an acetic acid mixed solvent (AcOH/distilled water/DMSO=5/3/2, v/v/v) were added to 50 μL of each rat plasma sample prepared in (1) and then mixed therewith. The mixture was transferred to Amicon Ultra-0.5 50K (Millipore Corp., MA) and centrifuged at 14000 rpm at 15° C. for 30 minutes. The obtained filtrate was transferred to Amicon Ultra-0.5 3K (Millipore Corp., MA) and centrifuged again under the aforementioned conditions. The solution remaining on the filter was recovered and transferred to a 96-well deep well plate. The content of the test substance was measured by LC-MS/MS (LC: Shimadzu LC-10ADVP (Shimadzu Corp.), MS/MS: API 4000 QTrap (AB SCIEX)) to calculate the concentration in plasma. The time at which the test substance was finally detected is shown in the rightmost column of Table 2.

[2] = molecular target: T1, human GC-A (Homo sapiens, UniProt P16066); assay: cGMP elevating activity in CHO/human GC-A cells (Test Example 1); type: cell-based
T1 construct: expressed in transfected cells; host or cells: CHO cells
T1 sequence (P16066 33-1061): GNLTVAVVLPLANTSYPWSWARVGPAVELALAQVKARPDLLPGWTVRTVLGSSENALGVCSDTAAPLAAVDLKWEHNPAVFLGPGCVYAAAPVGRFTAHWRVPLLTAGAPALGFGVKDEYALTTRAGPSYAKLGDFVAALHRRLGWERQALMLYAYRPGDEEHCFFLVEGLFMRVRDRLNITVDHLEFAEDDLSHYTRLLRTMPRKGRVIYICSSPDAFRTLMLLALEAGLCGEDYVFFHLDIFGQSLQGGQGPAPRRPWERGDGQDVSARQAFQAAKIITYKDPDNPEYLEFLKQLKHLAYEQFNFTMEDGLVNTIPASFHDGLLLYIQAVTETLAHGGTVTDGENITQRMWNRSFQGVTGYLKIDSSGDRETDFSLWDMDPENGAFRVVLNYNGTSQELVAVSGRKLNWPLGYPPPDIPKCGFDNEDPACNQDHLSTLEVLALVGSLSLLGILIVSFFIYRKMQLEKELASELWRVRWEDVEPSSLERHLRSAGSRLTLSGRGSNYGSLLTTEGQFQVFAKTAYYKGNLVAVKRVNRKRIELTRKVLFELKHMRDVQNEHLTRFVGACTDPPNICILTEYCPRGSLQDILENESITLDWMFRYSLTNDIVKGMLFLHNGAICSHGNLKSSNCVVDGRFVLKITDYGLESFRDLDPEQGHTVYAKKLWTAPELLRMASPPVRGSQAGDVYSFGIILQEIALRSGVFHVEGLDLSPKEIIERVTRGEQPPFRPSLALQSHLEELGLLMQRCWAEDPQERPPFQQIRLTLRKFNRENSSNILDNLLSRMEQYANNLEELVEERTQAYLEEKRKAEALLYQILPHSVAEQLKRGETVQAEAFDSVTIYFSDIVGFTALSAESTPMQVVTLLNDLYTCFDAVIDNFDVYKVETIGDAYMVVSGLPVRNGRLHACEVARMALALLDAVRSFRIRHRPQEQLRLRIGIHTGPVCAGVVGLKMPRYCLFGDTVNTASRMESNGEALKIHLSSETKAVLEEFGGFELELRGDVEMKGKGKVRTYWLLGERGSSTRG
How it was run: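 cGMP in lysates was read by HTRF after a 15 min peptide exposure of GC-A-expressing CHO cells in a CO2 incubator, following 10 min room-temperature preincubation with 1.6 mM IBMX in KRB. T/C values were normalised between solvent wells (0) and 1 nM ANP wells (1).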

SMILES: CC[C@H](C)[C@@H]1NC(=O)[C@H](CCCNC(=N)N)NC(=O)[C@H](CC(=O)O)NC(=O)[C@H](CCSC)NC(=O)[C@H](CCCNC(=N)N)NC(=O)CNC(=O)CNC(=O)[C@H](Cc2ccccc2)NC(=O)[C@@H](NC(=O)[C@H](CO)NC(=O)[C@H](CO)NC(=O)[C@H](CCCNC(=N)N)NC(=O)[C@H](CCCNC(=N)N)NC(=O)[C@H](CC(C)C)NC(=O)[C@H](CO)NC(=O)[C@@H](N)CC(=O)N[C@@H]2O[C@H](CO)[C@@H](O[C@@H]3O[C@H](CO)[C@@H](O[C@@H]4O[C@H](CO[C@H]5O[C@H](CO)[C@@H](O)[C@H](O)[C@@H]5O[C@@H]5O[C@H](CO)[C@@H](O[C@@H]6O[C@H](CO[C@]7(C(=O)O)C[C@H](O)[C@@H](NC(C)=O)[C@H]([C@H](O)[C@H](O)CO)O7)[C@H](O)[C@H](O)[C@H]6O)[C@H](O)[C@H]5NC(C)=O)[C@@H](O)[C@H](O[C@H]5O[C@H](CO)[C@@H](O)[C@H](O)[C@@H]5O[C@@H]5O[C@H](CO)[C@@H](O[C@@H]6O[C@H](CO[C@]7(C(=O)O)C[C@H](O)[C@@H](NC(C)=O)[C@H]([C@H](O)[C@H](O)CO)O7)[C@H](O)[C@H](O)[C@H]6O)[C@H](O)[C@H]5NC(C)=O)[C@@H]4O)[C@H](O)[C@H]3NC(C)=O)[C@H](O)[C@H]2NC(C)=O)CSSC[C@@H](C(=O)N[C@@H](CC(N)=O)C(=O)N[C@@H](CO)C(=O)N[C@@H](Cc2ccccc2)C(=O)N[C@@H](CCCNC(=N)N)C(=O)N[C@@H](Cc2ccc(O)cc2)C(=O)O)NC(=O)CNC(=O)[C@H](CC(C)C)NC(=O)CNC(=O)[C@H](CO)NC(=O)[C@H](CCC(N)=O)NC(=O)[C@H](C)NC(=O)CNC1=O [Compound 2-3, (SG-)Asn-hANP(1-28)]
- Maximum time of detection after administration [1]: 2 h
- EC50 [2]: 0.12 nM

SMILES: CC[C@H](C)[C@@H]1NC(=O)[C@H](CCCNC(=N)N)NC(=O)[C@H](CC(=O)O)NC(=O)[C@H](CCSC)NC(=O)[C@H](CCCNC(=N)N)NC(=O)CNC(=O)CNC(=O)[C@H](Cc2ccccc2)NC(=O)[C@@H](NC(=O)[C@H](CO)NC(=O)[C@H](CO)NC(=O)[C@H](CCCNC(=N)N)NC(=O)[C@H](CCCNC(=N)N)NC(=O)[C@H](CC(C)C)NC(=O)[C@H](CO)NC(=O)CCOCCOCCOCCOCCNC(=O)[C@H](CC(=O)N[C@@H]2O[C@H](CO)[C@@H](O[C@@H]3O[C@H](CO)[C@@H](O[C@@H]4O[C@H](CO[C@H]5O[C@H](CO)[C@@H](O)[C@H](O)[C@@H]5O[C@@H]5O[C@H](CO)[C@@H](O[C@@H]6O[C@H](CO[C@]7(C(=O)O)C[C@H](O)[C@@H](NC(C)=O)[C@H]([C@H](O)[C@H](O)CO)O7)[C@H](O)[C@H](O)[C@H]6O)[C@H](O)[C@H]5NC(C)=O)[C@@H](O)[C@H](O[C@H]5O[C@H](CO)[C@@H](O)[C@H](O)[C@@H]5O[C@@H]5O[C@H](CO)[C@@H](O[C@@H]6O[C@H](CO[C@]7(C(=O)O)C[C@H](O)[C@@H](NC(C)=O)[C@H]([C@H](O)[C@H](O)CO)O7)[C@H](O)[C@H](O)[C@H]6O)[C@H](O)[C@H]5NC(C)=O)[C@@H]4O)[C@H](O)[C@H]3NC(C)=O)[C@H](O)[C@H]2NC(C)=O)NC(=O)CO[C@@H]2O[C@H](CO)[C@@H](O[C@@H]3O[C@H](CO)[C@@H](O[C@@H]4O[C@H](CO[C@H]5O[C@H](CO)[C@@H](O)[C@H](O)[C@@H]5O[C@@H]5O[C@H](CO)[C@@H](O[C@@H]6O[C@H](CO[C@]7(C(=O)O)C[C@H](O)[C@@H](NC(C)=O)[C@H]([C@H](O)[C@H](O)CO)O7)[C@H](O)[C@H](O)[C@H]6O)[C@H](O)[C@H]5NC(C)=O)[C@@H](O)[C@H](O[C@H]5O[C@H](CO)[C@@H](O)[C@H](O)[C@@H]5O[C@@H]5O[C@H](CO)[C@@H](O[C@@H]6O[C@H](CO[C@]7(C(=O)O)C[C@H](O)[C@@H](NC(C)=O)[C@H]([C@H](O)[C@H](O)CO)O7)[C@H](O)[C@H](O)[C@H]6O)[C@H](O)[C@H]5NC(C)=O)[C@@H]4O)[C@H](O)[C@H]3NC(C)=O)[C@H](O)[C@H]2NC(C)=O)CSSC[C@@H](C(=O)N[C@@H](CC(N)=O)C(=O)N[C@@H](CO)C(=O)N[C@@H](Cc2ccccc2)C(=O)N[C@@H](CCCNC(=N)N)C(=O)N[C@@H](Cc2ccc(O)cc2)C(=O)O)NC(=O)CNC(=O)[C@H](CC(C)C)NC(=O)CNC(=O)[C@H](CO)NC(=O)[C@H](CCC(N)=O)NC(=O)[C@H](C)NC(=O)CNC1=O [Compound 2-13, SG-(SG-)Asn-PEG(3)-hANP(1-28)]
- Maximum time of detection after administration [1]: 3 h
- EC50 [2]: 0.34 nM

SMILES: CC[C@H](C)[C@@H]1NC(=O)[C@H](CCCNC(=N)N)NC(=O)[C@H](CC(=O)O)NC(=O)[C@H](CCSC)NC(=O)[C@H](CCCNC(=N)N)NC(=O)CNC(=O)CNC(=O)[C@H](Cc2ccccc2)NC(=O)[C@@H](NC(=O)[C@H](CO)NC(=O)[C@H](CO)NC(=O)[C@H](CCCNC(=N)N)NC(=O)[C@H](CCCNC(=N)N)NC(=O)[C@H](CC(C)C)NC(=O)[C@H](CO)NC(=O)CNC(=O)[C@H](CCCCNC(=O)CO[C@@H]2O[C@H](CO)[C@@H](O[C@@H]3O[C@H](CO)[C@@H](O[C@@H]4O[C@H](CO[C@H]5O[C@H](CO)[C@@H](O)[C@H](O)[C@@H]5O[C@@H]5O[C@H](CO)[C@@H](O[C@@H]6O[C@H](CO[C@]7(C(=O)O)C[C@H](O)[C@@H](NC(C)=O)[C@H]([C@H](O)[C@H](O)CO)O7)[C@H](O)[C@H](O)[C@H]6O)[C@H](O)[C@H]5NC(C)=O)[C@@H](O)[C@H](O[C@H]5O[C@H](CO)[C@@H](O)[C@H](O)[C@@H]5O[C@@H]5O[C@H](CO)[C@@H](O[C@@H]6O[C@H](CO[C@]7(C(=O)O)C[C@H](O)[C@@H](NC(C)=O)[C@H]([C@H](O)[C@H](O)CO)O7)[C@H](O)[C@H](O)[C@H]6O)[C@H](O)[C@H]5NC(C)=O)[C@@H]4O)[C@H](O)[C@H]3NC(C)=O)[C@H](O)[C@H]2NC(C)=O)NC(=O)CO[C@@H]2O[C@H](CO)[C@@H](O[C@@H]3O[C@H](CO)[C@@H](O[C@@H]4O[C@H](CO[C@H]5O[C@H](CO)[C@@H](O)[C@H](O)[C@@H]5O[C@@H]5O[C@H](CO)[C@@H](O[C@@H]6O[C@H](CO[C@]7(C(=O)O)C[C@H](O)[C@@H](NC(C)=O)[C@H]([C@H](O)[C@H](O)CO)O7)[C@H](O)[C@H](O)[C@H]6O)[C@H](O)[C@H]5NC(C)=O)[C@@H](O)[C@H](O[C@H]5O[C@H](CO)[C@@H](O)[C@H](O)[C@@H]5O[C@@H]5O[C@H](CO)[C@@H](O[C@@H]6O[C@H](CO[C@]7(C(=O)O)C[C@H](O)[C@@H](NC(C)=O)[C@H]([C@H](O)[C@H](O)CO)O7)[C@H](O)[C@H](O)[C@H]6O)[C@H](O)[C@H]5NC(C)=O)[C@@H]4O)[C@H](O)[C@H]3NC(C)=O)[C@H](O)[C@H]2NC(C)=O)CSSC[C@@H](C(=O)N[C@@H](CC(N)=O)C(=O)N[C@@H](CO)C(=O)N[C@@H](Cc2ccccc2)C(=O)N[C@@H](CCCNC(=N)N)C(=O)N[C@@H](Cc2ccc(O)cc2)C(=O)O)NC(=O)CNC(=O)[C@H](CC(C)C)NC(=O)CNC(=O)[C@H](CO)NC(=O)[C@H](CCC(N)=O)NC(=O)[C@H](C)NC(=O)CNC1=O [Compound 2-14, SG-(SG-)Lys-Gly-hANP(1-28)]
- Maximum time of detection after administration [1]: 1.5 h
- EC50 [2]: 0.6 nM
